{
  "source": "the nanobody polyreactivity screen of Harvey et al. (2022)",
  "data": [
    {"assay": "yeast display, Sf9 membrane polyspecificity reagent, FACS + sequencing; frameworks hold sequencing errors", "procedure,_shortened": "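Galactose induction of a Saccharomyces cerevisiae BJ5465 synthetic nanobody display library ran 36–48 hours. The cells were then stained for 1 hour at 4 °C with 10% biotinylated, detergent-solubilized Sf9 membrane reagent, pulled down on streptavidin microbeads and FACS-sorted into low and high (top ~1%) gates on expression and reagent-binding fluorescence. Labels for polyreactivity follow the gate of origin.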", "values": [
      {"sequence": "QVQLVESGGGLVQAGGSLRLSCAASGSTFYPYAMGWYRQAPGKERELVAAINLRADSTNYADSVKGRFTISRDNAKNTVYLQMNSLKPEDTAVYYCAARVSYRSGRRPLWAYNSWGQGTQVTVSS", "polyreactivity (PSR sort gate)": "high polyreactivity"},
      {"sequence": "QVQLVESGGGLVQAGGSLRLSCAASGSTFYPYAMGWYRQAPGKERELVAAINWSGGTTYYADSVKGRFTLSRDNAKNTVYLQMNSLKPEDTAVYYCAAVGYPPGYGYWGQGTQVTVSS", "polyreactivity (PSR sort gate)": "low polyreactivity"},
      {"sequence": "QVQLVESGGGLVQAGGSLRLSCAASGSTFYPYAMGWYRQAPGKERELVAAISSGGSTSYADSVKGRFTISRENAKNTVYLQMNSLKPEDTAVYYCNASSPVAVPVYDYDYWGQGTQVTVSS", "polyreactivity (PSR sort gate)": "low polyreactivity"},
      {"sequence": "QVQLVESGGGLVQAGGSLRLSCAASGSTFYPYAMGWYRQAPGKERELVAAITSGGRTYYADSVKGRFTISRDNAKNTVYLQMNSLKPEDTAVYYCAAVYINRLTSKYEYWGQGTQVTVSS", "polyreactivity (PSR sort gate)": "high polyreactivity"},
      {"sequence": "QVQLVESGGGLVQAGGSLRLSCAASGSTFYPYAMGWYRQAPGNERELVAALDRGGSTSYADSVKGRFTISRDNAKNTVYLQMIRLKPEDTAVYYCAVARGGRRKYEYWGQGTQVTVSS", "polyreactivity (PSR sort gate)": "low polyreactivity"},
      {"sequence": "QVQLVESGGGLVQAGGSLRLSCAASGSTFYPYDMGLYRQAPGKERELVATITSTGGSTNYADSVKGRFTISRDNAQNTVYLQMNSLKPEDTAVYYCAKDWNDDQHSWDTPFDYWGQGTHVTVSS", "polyreactivity (PSR sort gate)": "low polyreactivity"},
      {"sequence": "QVQLVESGGGLVQAGGSLRLSCAASGSTFYPYGMGWYRHAPGKERDLVAAISKRGGSTYYADSVKGRFTISRDNAKNTVYLQMNSLKPEDTAVYYCAAYGAGKFWAEHNYWGQGTQVTVSS", "polyreactivity (PSR sort gate)": "high polyreactivity"},
      {"sequence": "QVQLVESGGGLVQAGGSLRLSCAASGSTFYPYPMGWYRQAPGKERELVATISSSGGTTSYADSVKGRFTISRDNAKNTVYLQMNSLKPEDTAVYYGAARGYGSLHHVLGHHDSWGQGTQVTVSS", "polyreactivity (PSR sort gate)": "low polyreactivity"},
      {"sequence": "QVQLVESGGGLVQAGGSLRLSCAASGSTFYQYAMGWYRQAPGKERELVAAISKSGGSTYYADSVKGRFTISRDNAKNTVYLQMNSLKPEDTAVYYCATRWIKGRNMDYWGQGTQVTVSS", "polyreactivity (PSR sort gate)": "high polyreactivity"},
      {"sequence": "QVQLVESGGGLVQAGGSLRLSCAASGSTFYQYAMGWYRQAPGKERELVAAISRSGSTNYADSVKGRFTISRDNAKNTVYLQMNSLKPEDTAVYDCAARLGTRQYKMDYWGQGTQVTVSS", "polyreactivity (PSR sort gate)": "high polyreactivity"},
      {"sequence": "QVQLVESGGGLVQAGGSLRLSCAASGSTFYQYAMGWYRQAPGKERELVARITYNGGRTYYADSVKGRFTISRDNAKNTVYLQMNSLKPEDTAVYYCAARRWSTGGYGQFDYWGQGTQVTVSS", "polyreactivity (PSR sort gate)": "low polyreactivity"},
      {"sequence": "QVQLVESGGGLVQAGGSLRLSCAASGSTFYQYVMGWYRQAPGKERELVADITNGGSTYYADSVKGRFTISRDNAKNTVYLQMNSLKPEDTAVYYCAADGGYYWYTYWYGGLYYWGQGTQVTVSS", "polyreactivity (PSR sort gate)": "high polyreactivity"},
      {"sequence": "QVQLVESGGGLVQAGGSLRLSCAASGSTFYRNAMGWYIQAPGKEREFVAAISYSGGGTYYADSVKGRFTISRDNAKNTVYLQMNSLKPEETAVYYCAADVSGWEYDYWGQVTQVTVSS", "polyreactivity (PSR sort gate)": "low polyreactivity"},
      {"sequence": "QVQLVESGGGLVQAGGSLRLSCAASGSTFYRNAMGWYRQAPGKERAFVAAISFRGGGTYADSVKGRFTISRDNAKNTVYLQMNSLKPEDTAVYYCAADHLSYPRRYEYWGQGTQVTVSS", "polyreactivity (PSR sort gate)": "low polyreactivity"},
      {"sequence": "QVQLVESGGGLVQAGGSLRLSCAASGSTFYRNAMGWYRQAPGKEREFVAAISFRGGGTYADSVKGRFTISRDNAKNTVYLQMNSLIPEDTAVYYCAADHLSYRRRYEYWGQGTQVTVSS", "polyreactivity (PSR sort gate)": "low polyreactivity"},
      {"sequence": "QVQLVESGGGLVQAGGSLRLSCAASGSTFYRNAMGWYRQAPGKERELVAAISGSDGSTYYADSVKGRFTISRDNAKNTVYLQMNSLKPEDTAVYYCNARRWWVIRDYWGQGTQVTVSS", "polyreactivity (PSR sort gate)": "high polyreactivity"},
      {"sequence": "QVQLVESGGGLVQAGGSLRLSCAASGSTFYRNAMGWYRQAPGKERELVAAISRRSGTTYYADSVKGRFTISRDNAKNTVYLQMNSLKPEDTSVYYCATVRGGYDYWGQGTQVTVSS", "polyreactivity (PSR sort gate)": "high polyreactivity"},
      {"sequence": "QVQLVESGGGLVQAGGSLRLSCAASGSTFYRNAMGWYRQAPGKERELVAAISSTGGSTYYADSVKGRFTISRDNAKNTVYLQMNSLKPEDTAVYYCARDYSWLTRGSDYDYWGQGTQVTVSS", "polyreactivity (PSR sort gate)": "low polyreactivity"},
      {"sequence": "QVQLVESGGGLVQAGGSLRLSCAASGSTFYRNAMGWYRQAPGKERELVAAISTSGGSTYYADSVKGRFTISRDNAKNTVYLQMNSLKPEDTAVYYCATDSYYFDVMYGWKEYDYWGQGTQVTVSS", "polyreactivity (PSR sort gate)": "high polyreactivity"},
      {"sequence": "QVQLVESGGGLVQAGGSLRLSCAASGSTFYRNTMGWYRQAPGKERELVAAIRRSGSSTYYADSVKGRFTISRDIAKNTVYLQMNSLKREDTAVYYCAKEGLSYRYYYWGQGTQVTVSS", "polyreactivity (PSR sort gate)": "high polyreactivity"},
      {"sequence": "QVQLVESGGGLVQAGGSLRLSCAASGSTFYRYAMGWSRQAPGKERELVAAITWRGGSTYYADSVKGRFTISRDNAKNTLYLQMNSLKPEDTAVYYCAADSYYYRPYHYGYDYWGQGTQVTVSS", "polyreactivity (PSR sort gate)": "high polyreactivity"},
      {"sequence": "QVQLVESGGGLVQAGGSLRLSCAASGSTFYRYAMGWYRQAPGKEREFVAAISGSGGSTRYADSVKGRFTISRDNAKNSVFLQMNSLKPEDTAVYYCAARSRYGYSTFDYWGHGTQVTVSS", "polyreactivity (PSR sort gate)": "high polyreactivity"},
      {"sequence": "QVQLVESGGGLVQAGGSLRLSCAASGSTFYRYAMGWYRQAPGKERELVAAISTSGGRTYYADSVKGRFTISRDNAKNTVYLQMNSLKPEDTAVYYCAAPYQYGYWGQGTQVTVSS", "polyreactivity (PSR sort gate)": "high polyreactivity"},
      {"sequence": "QVQLVESGGGLVQAGGSLRLSCAASGSTFYRYAMGWYRQAPGKERELVAAITRGGGNTYYADSVKGRFTISRDNAKNTVYLQMNSLKPEDTAVYYCNTDPTLRSRVGIWGFDYWGQGTQVTVSS", "polyreactivity (PSR sort gate)": "high polyreactivity"},
      {"sequence": "QVQLVESGGGLVQAGGSLRLSCAASGSTFYRYAMGWYRQAPGKERELVAAITRTGGSTYADSVKGRFTISRDNAKNTVYLQMNSLKPEDTAVYYCAVQRYYVSSISPFYYWGQGTQVTVSS", "polyreactivity (PSR sort gate)": "low polyreactivity"},
      {"sequence": "QVQLVESGGGLVQAGGSLRLSCAASGSTFYRYAMGWYRQAPGKERELVAAITRTTARTYYADSVKGRFTISRDYAKNTVYLQMNSLKPEDTAVYYCAADLYSWTWSGFRQYDYWGQGTQVTVSS", "polyreactivity (PSR sort gate)": "high polyreactivity"},
      {"sequence": "QVQLVESGGGLVQAGGSLRLSCAASGSTFYRYAMGWYRQAPGKERELVARITWSAGRTYYADSVKGRFTISRDTAKNTVYLQMNSLKPEDTAVYYCAADSGGFASNKRMDYWGQGTQVTVSS", "polyreactivity (PSR sort gate)": "high polyreactivity"},
      {"sequence": "QVQLVESGGGLVQAGGSLRLSCAASGSTFYRYPMGWYRQAPGKERELVAGITGSGRRTYYADSVKGRFTISRDNAKNTVYFQMNSVKPEDTAVYYCNKRRASWSPAGGTYNYWGQGTQVTVSS", "polyreactivity (PSR sort gate)": "low polyreactivity"},
      {"sequence": "QVQLVESGGGLVQAGGSLRLSCAASGSTFYRYTMGWYRQAPGTERELVSAISRSGGSTYYADSVKGRFTISRDNAKNTVYLQMNSLKPEDTAVYYCATYGDFKSGYRYGYWGQGTQVTVSS", "polyreactivity (PSR sort gate)": "high polyreactivity"},
      {"sequence": "QVQLVESGGGLVQAGGSLRLSCAASGSTFYRYVMGWYRQAPGKERELVAAITWRGGTTYYADSVKGRFTISRDNAKNTVYLQMNRLNPEDTAVYYCNADRYLGVSEYKTYEYEYWGQGTQVTVSS", "polyreactivity (PSR sort gate)": "low polyreactivity"},
      {"sequence": "QVQLVESGGGLVQAGGSLRLSCAASGSTFYSNAMGWYRPAPGKERELVASITRGGSTNYADSVKGRFTISRDNAKNTVYLQMNSLKPEDTAVYYCNAERRYYFYRYDYWGQGTQVTVSS", "polyreactivity (PSR sort gate)": "high polyreactivity"},
      {"sequence": "QVQLVESGGGLVQAGGSLRLSCAASGSTFYSNAMGWYRQAPGKERELVAAISYSGGRTYYADSVKGRFTISRDNAKNTVFLQMNSLKPEDTAVYYCNKAYRRYIWHMDYWGQGTQVTVSS", "polyreactivity (PSR sort gate)": "high polyreactivity"},
      {"sequence": "QVQLVESGGGLVQAGGSLRLSCAASGSTFYSNAMGWYRQAPGKERELVASISWSSGSTYYADSVKGRFTISRDNAKNTVYLQMNSLKPDDTAVYYCATDAGGPYRFGYWGQGTQVTVSS", "polyreactivity (PSR sort gate)": "low polyreactivity"},
      {"sequence": "QVQLVESGGGLVQAGGSLRLSCAASGSTFYSYAMGWSRQAPGKERELVAAITRGGRTYYADSVKGRFTISRDNAKNTVYLQMNSLKPEDTAVYYCNVVTKFTGRGYDYWGQGTQVTVSS", "polyreactivity (PSR sort gate)": "high polyreactivity"},
      {"sequence": "QVQLVESGGGLVQAGGSLRLSCAASGSTFYSYAMGWYRQAPGKEREFVAAIRYSGGRTYADSVKGRFSISRDNAKNTVYLQMNSLKPEDTAVYYCAAVYYSYRWPYDYWGQGTQVTVSS", "polyreactivity (PSR sort gate)": "high polyreactivity"},
      {"sequence": "QVQLVESGGGLVQAGGSLRLSCAASGSTFYSYAMVWYRPARGPERELVAAITSGGRTYYADSVKGRFTISRDNAKNTVYLQMNCLKPEDTAVYYCSADLPVFGGYRSNRFGYWGQGTQVTVSS", "polyreactivity (PSR sort gate)": "high polyreactivity"},
      {"sequence": "QVQLVESGGGLVQAGGSLRLSCAASGSTFYSYGMGWYRPAPGKERELVAAITKRVGRTYYADSVKGRFTISRDNAKNTVYLQMNSLKPEDTAVYYCAARAWTRSVPYGFYYWGQGTQVTVSS", "polyreactivity (PSR sort gate)": "high polyreactivity"},
      {"sequence": "QVQLVESGGGLVQAGGSLRLSCAASGSTFYSYVIGWYRQAPGRESELVAVITSGGSTTYADSVNGRFTISRDNAKNTVYLEMNSLIPEDTAVYYCNAAYYNTDTQKVTFDYWGQGTQVTVSS", "polyreactivity (PSR sort gate)": "low polyreactivity"},
      {"sequence": "QVQLVESGGGLVQAGGSLRLSCAASGSTFYTNAMGWYRQAPGKERELVAAINRSGGRTYYADSVKGRFTISRDNAKNTVYLQMISLKPEDTAVYYCAARYPLRISTDTARDYYWGQGTQVTVSS", "polyreactivity (PSR sort gate)": "low polyreactivity"},
      {"sequence": "QVQLVESGGGLVQAGGSLRLSCAASGSTFYTNAMGWYRQAPGTERELVAAINYSGGSTYYADSVKGRFTISRDNAKNTVYLQMNSQTPEDTAVYYCATDLHWLVTKYGYWGQGTQVTVSS", "polyreactivity (PSR sort gate)": "low polyreactivity"},
      {"sequence": "QVQLVESGGGLVQAGGSLRLSCAASGSTFYTNVMGWYRQAPGKDRELVAAISYNSGSTSYADSVKGRFTISRDNAKNTVYLQMNSLKPEDTAVYYCAVRIRLRRARLSYDYWGQGTQVTVSS", "polyreactivity (PSR sort gate)": "high polyreactivity"}
    ]}
  ]
}
